Consider 1 protein from article PMC3832651, “Characterization of Neutral Lipase BT-1 Isolated from the Labial Gland of Bombus terrestris Males” (PLoS ONE, 2013).

As usually defined, the Km is the substrate concentration at which the rate is half of its maximum. One may read the Vmax as the rate approached at saturating substrate.

Substrate in the series: CCCCCCCCCCCC(=O)Oc1ccc([N+](=O)[O-])cc1
The experiment in a line: purified protein. It is filed as biochemical, Bombus terrestris. The note with it: 50 mM Tris/HCl, pH 8.2, 25°C, p-NPL 0.05-0.4 mM added in 2-propanol.

B1: lipase BT-1 (Bombus terrestris) (protein)
chain: VICDVEDTLHVSRKIRLKIYKGNSSYFSSTESMVMNPGNIADDILPDRDSILYIHGFLENTEAENVRVIIRAYLDKGDVNVIVLDWGEIAFNINYVYVSSQVVTIAKAVAESLKKLVDLIDLDTLHVIGHSLGAHIAGNIGRYANINLSRITGLDPALPLFYPSTCHVRSTDAEAVVILHTDGGFYGTATNTGTIDFYVNGGSSVQPGCPIIFGGEFCSHQRSTRIYAESLLNPKAFPAHKCLNEIADTEEVYFGDSTPKDIYGTYCFNTNAKPPYGKTI
notes: native, purified from labial gland (cephalic part) of 2- to 3-day-old males on octyl-agarose, Triton X-100 desorption; ~30 kDa on SDS-PAGE; identified by MS (18 peptides); catalytic triad Ser155, Asp179, His244
As to B1, the Km is 1.1 ± 0.3 µM and the maximal velocity (Vmax) came out at 0.15 µmol/min/mg.
